Data: the RNAGym collection of RNA variant scans (doi:10.1073/pnas.2313332121)

B1: TPR t1 (parent)
chain: GACCAAUCUGCCCUCAGAGCUCGAGAACAUCUUCGGAUGCAGAGGAGGCAGGCUUCGGUGGCGCGAUAGCGCCAACGUCCUCAACCUCCAAUGCAUCCCACCACAUGAUGAUGCCUGAAGAGCCUUGGUUUUUUG

Variants of: B1
Assay: polymerase ribozyme fitness, log enrichment relative to wild type (log ratio); higher = more active; in vitro selection for triplet polymerase activity
In short: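 After PCR construction and transcription, each subunit's mutant library from a heterodimeric triplet polymerase ribozyme was annealed with a biotinylated primer, the partner subunit and triplets. Incubation was frozen, at −7 °C, and extended constructs were gel-excised, bound to streptavidin beads and amplified by RT-PCR, in one selection round done in triplicate. Fitness is the logarithm of a genotype's enrichment divided by that of the wild type, from inverse-variance-weighted replicate averages of Illumina-sequenced inputs and outputs. The base of the logarithm is 2, and genotypes needed ≥10 input reads and ≥1 read per output.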

In order of falling “polymerase ribozyme fitness (log ratio)” value:
1. C53U G60U A121C  1.26
2. C53U U112A  0.78
3. U54A A119G  0.648
4. G51A C82U C124U  0.555
5. C53G A90G  0.537
6. G52C C72A U78C  0.275
7. C53U G61U U78C  0.151
8. C53A  0.0557
9. C53A G60A C94A G120A  0.047
10. C53G G120A G127U  -0.0103
11. C53A C73A  -0.0116
12. G52A U55A A74U G120C C123A C124U G135A  -0.0228
13. C53U U55A  -0.075
14. C53G C97U A118U  -0.0977
15. C53U  -0.1
16. C53A C56U  -0.113
17. C53A G60U  -0.129
18. C53U C56U  -0.207
19. C53U U59G  -0.253
20. C53U C64U  -0.276
21. G52A  -0.286
22. G52A C76U  -0.303
23. C53G  -0.355
24. C53A C82G A84G  -0.378
25. G52A G57C  -0.388
26. C53G G57C G63C  -0.44
27. G52U G60C  -0.445
28. G52A C72G  -0.491
29. C53A G120U G122C U125A  -0.563
30. C53A G127U U129A  -0.623
31. G52C  -0.632
32. C53A G135U  -0.659
33. C53G C89U  -0.681
34. G52U G61U  -0.708
35. C53G C56U  -0.756
36. C53G C82A C94U U130G  -0.77
37. C53U G77U U132A  -0.78
38. G52U G77U A90U A121U U130A  -0.805
39. G52U  -0.82
40. G52U G60A  -0.943
41. G52U U112A U126G  -0.97
42. C53U U54G C56U U129C U133G  -0.985
43. U54A C76U  -0.995
44. C53G C64U G127U  -1.02
45. G52U C53A C73U  -1.08
46. G51U C80U C88A A119G  -1.11
47. C53A C70U U78C C86G  -1.12
48. G52U G61A  -1.14
49. G51A C73G C124U  -1.14
50. G52C G58A  -1.15
51. C53G C70U  -1.16
52. G51A G60A C124G  -1.16
53. C53A C85G  -1.17
54. C53A A84U U125A  -1.27
55. G52C C82A U112G  -1.29
56. C53G G63C  -1.3
57. G52C C62U C72A C82U A119U  -1.34
58. G52A G113A  -1.37
59. C53U C98U  -1.46
60. C53U C70A  -1.49
61. U54A C85U C97U  -1.5
62. G52U C56G C89U  -1.53
63. G52A A90G G93U U112C A119C  -1.55
64. G52C U125G  -1.59
65. G52C U129C  -1.64
66. G52A G69C C72U A95C  -1.66
67. C53G U116C  -1.68
68. G52C G113A C124U  -1.69
69. C53U A91U C123A  -1.7
70. G52U C73G A84U  -1.78
71. C53U C104A  -1.8
72. G52U G117A  -1.81
73. G51U G120C U133G  -1.86
74. G52U G93U  -1.93
75. G52U A66U  -1.95
76. G51A A74G A83G G120U C123G G128U  -1.97
77. C53U C94A U129C  -1.99
78. A50U G113A  -2.01
79. G52A G57A G127C  -2.09
80. C53U G63C  -2.11
81. G52C C53G G120U  -2.13
82. C53U U59A A84U U126C  -2.21
83. C53A G60C  -2.24
84. G52C G69U C97A  -2.26
85. C53A G113C  -2.28
86. C53G C56G C82G C85A C94G  -2.28
87. C53G U126A  -2.29
88. G51A A84C  -2.3
89. G51U G60C  -2.36
90. C53U G61U C114U  -2.37
91. G52A G60U  -2.42
92. C53U C102U  -2.44
93. G52U U129G  -2.57
94. C53A U59C A105U  -2.61
95. C53A A68G  -2.61
96. G51A A95G  -2.62
97. G52C C115A A118U U131A  -2.68
98. A50U G113U  -2.75
99. G52C G58A C79A C85U  -2.78
100. G51A C86A  -2.78
101. A50U G117C  -2.96
102. G51A C72G C79U  -3.08
103. C53U G69A A84C  -3.13
104. C53G C80G  -3.16
105. G51A C86U  -3.18
106. G51U C72A U106A  -3.24
107. G52A G57A A66U G127C  -3.31
108. G51A C56U G93U  -3.4
109. G51A G93A  -3.45
110. G51A C62U G113A  -3.5
111. G52A C70U G77A U78G C79U G117U  -3.69
112. G52U C72U C104A G127C  -3.82
113. G52U G113U  -3.87
114. G51U C94A U133G  -3.88
115. C53A C80U U106A G135U  -3.96
116. G51C U129C  -3.96
117. G51U C72U  -3.99
118. A50U U112A C124U G128C  -4
119. C53U G57A G60C G61A C115U  -4.03
120. G51A G93U  -4.23
121. G51C C79A  -4.29
122. G52A G69C C85A G122A U133A  -4.36
123. C53U C70G  -4.36
124. C53U U78A A103U A121C U132C  -4.38
125. G51U C73A G117A  -4.4
126. C53A A100G G113A G120C  -4.41
127. G51U G60A C124U  -4.52
128. G52A G69U G71U C102A  -4.53
129. G51A G71A  -4.53
130. G51C C72A U129G  -4.58
131. G52U C56A C99U  -4.58
132. G52C G61A C62U C85U U96G G117A  -4.79
133. G52U G57U G128C  -4.79
134. C53G G61C A83G C88G C104A  -4.92
135. C53A G61C G110A A119U U133A  -4.96
136. G51U G60U G69C C73G  -4.99
137. C53G U78C C80U A91G U92C C124A  -5.02
138. G51A C56U A84G A95G U96A  -5.06
139. C53U G60U C101U A103C  -5.14
140. G52U G77U G117U U126C  -5.18
141. G51U C89A  -5.25
142. G51A C56U A84U C99U A121U  -5.26
143. G51U G110A  -5.3
144. G51U C62A  -5.43
145. C53G G107A  -5.6
146. G52A C70U C86U C94A A100C C101U C114G  -5.67
147. G51U G110A U132A  -5.7
148. G52C C85U G117C  -5.83
149. C53A G61C U116C  -5.85
150. G52C C86A C114U G120U  -5.89
151. G51U C62G  -5.98
152. G51C G61U C114U  -6.08
153. C53U G71A C73A G77C C80U  -6.09
154. C53G C64A U112G C124A  -6.11
155. C53U G63C C98G  -6.12
156. G51U G61A C64U U125G  -6.13
157. G51C G63A U78C A111C  -6.17
158. C53G G61A U106G G110C C124U  -6.24
159. G52U U109C A118U  -6.47
160. C53U U59C C89A C104U G117C G128U  -6.6
161. G52U G58A C79G C85A G107U G113A  -6.66
162. G51U U55G C102U  -6.73
163. C53G G63A C94A C115G G128C  -6.79
164. C53U U67G C124G  -7.17
165. G51U U87A G107U C115A A121U  -7.71
166. G51A C53G G117C G127C  -7.73
167. G51A C79G C80G A84C C124G G128C  -7.76
